Where no end group is shown, it is not given here. The star is where a group is joined. Succinimide(1-Et,3-yl) = CCN1C(=O)CC(*)C1=O

These results are taken from US20110105397A1, “METHOD FOR TREATING HEART FAILURE WITH STRESSCOPIN-LIKE PEPTIDES” (priority 2009, published 2011).

T1: human corticotrophin releasing hormone receptor type 2 (CRHR2) (human, UniProt Q13324 1-411)
T1 sequence (looked up): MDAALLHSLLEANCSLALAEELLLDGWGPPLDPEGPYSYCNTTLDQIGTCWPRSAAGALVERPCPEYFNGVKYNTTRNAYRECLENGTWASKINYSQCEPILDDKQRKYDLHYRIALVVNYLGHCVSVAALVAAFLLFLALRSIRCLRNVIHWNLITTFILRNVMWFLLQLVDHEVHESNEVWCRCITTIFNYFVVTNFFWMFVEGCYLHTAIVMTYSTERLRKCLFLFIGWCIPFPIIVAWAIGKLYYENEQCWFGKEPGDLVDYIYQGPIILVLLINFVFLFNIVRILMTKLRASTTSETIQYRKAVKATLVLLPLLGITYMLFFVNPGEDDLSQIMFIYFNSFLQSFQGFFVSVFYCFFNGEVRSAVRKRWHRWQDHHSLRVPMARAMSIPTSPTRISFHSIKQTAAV

B1: Cys-variant of stresscopin peptide with N-Ethylsuccinimide (NES) reactive group SEQ ID NO: 49 (peptide)
peptide: TKFTLSLDVPTNIMNLLFNIAKAKC(Succinimide(1-Et,3-yl))LRAQAAANAHLMAQI-NH2
modifications: N-terminus assumed
SMILES: CC[C@H](C)[C@H](NC(=O)[C@H](CCC(N)=O)NC(=O)[C@H](C)NC(=O)[C@H](CCSC)NC(=O)[C@H](CC(C)C)NC(=O)[C@H](Cc1c[nH]cn1)NC(=O)[C@H](C)NC(=O)[C@H](CC(N)=O)NC(=O)[C@H](C)NC(=O)[C@H](C)NC(=O)[C@H](C)NC(=O)[C@H](CCC(N)=O)NC(=O)[C@H](C)NC(=O)[C@H](CCCNC(=N)N)NC(=O)[C@H](CC(C)C)NC(=O)[C@H](CSC1CC(=O)N(CC)C1=O)NC(=O)[C@H](CCCCN)NC(=O)[C@H](C)NC(=O)[C@H](CCCCN)NC(=O)[C@H](C)NC(=O)[C@@H](NC(=O)[C@H](CC(N)=O)NC(=O)[C@H](Cc1ccccc1)NC(=O)[C@H](CC(C)C)NC(=O)[C@H](CC(C)C)NC(=O)[C@H](CC(N)=O)NC(=O)[C@H](CCSC)NC(=O)[C@@H](NC(=O)[C@H](CC(N)=O)NC(=O)[C@@H](NC(=O)[C@@H]1CCCN1C(=O)[C@@H](NC(=O)[C@H](CC(=O)O)NC(=O)[C@H](CC(C)C)NC(=O)[C@H](CO)NC(=O)[C@H](CC(C)C)NC(=O)[C@@H](NC(=O)[C@H](Cc1ccccc1)NC(=O)[C@H](CCCCN)NC(=O)[C@@H](N)[C@@H](C)O)[C@@H](C)O)C(C)C)[C@@H](C)O)[C@@H](C)CC)[C@@H](C)CC)C(N)=O
B2: Cys-variant of stresscopin peptide with N-Ethylsuccinimide (NES) reactive group SEQ ID NO: 47 (peptide)
peptide: TKFTLSLDVPTNIMNLLFNIAKAKNLRC(Succinimide(1-Et,3-yl))QAAANAHLMAQI-NH2
modifications: N-terminus assumed
SMILES: CC[C@H](C)[C@H](NC(=O)[C@H](CCC(N)=O)NC(=O)[C@H](C)NC(=O)[C@H](CCSC)NC(=O)[C@H](CC(C)C)NC(=O)[C@H](Cc1c[nH]cn1)NC(=O)[C@H](C)NC(=O)[C@H](CC(N)=O)NC(=O)[C@H](C)NC(=O)[C@H](C)NC(=O)[C@H](C)NC(=O)[C@H](CCC(N)=O)NC(=O)[C@H](CSC1CC(=O)N(CC)C1=O)NC(=O)[C@H](CCCNC(=N)N)NC(=O)[C@H](CC(C)C)NC(=O)[C@H](CC(N)=O)NC(=O)[C@H](CCCCN)NC(=O)[C@H](C)NC(=O)[C@H](CCCCN)NC(=O)[C@H](C)NC(=O)[C@@H](NC(=O)[C@H](CC(N)=O)NC(=O)[C@H](Cc1ccccc1)NC(=O)[C@H](CC(C)C)NC(=O)[C@H](CC(C)C)NC(=O)[C@H](CC(N)=O)NC(=O)[C@H](CCSC)NC(=O)[C@@H](NC(=O)[C@H](CC(N)=O)NC(=O)[C@@H](NC(=O)[C@@H]1CCCN1C(=O)[C@@H](NC(=O)[C@H](CC(=O)O)NC(=O)[C@H](CC(C)C)NC(=O)[C@H](CO)NC(=O)[C@H](CC(C)C)NC(=O)[C@@H](NC(=O)[C@H](Cc1ccccc1)NC(=O)[C@H](CCCCN)NC(=O)[C@@H](N)[C@@H](C)O)[C@@H](C)O)C(C)C)[C@@H](C)O)[C@@H](C)CC)[C@@H](C)CC)C(N)=O
B3: Cys-variant of stresscopin peptide with N-Ethylsuccinimide (NES) reactive group SEQ ID NO: 51 (peptide)
peptide: TKFTLSLDVPTNIMNLLFNC(Succinimide(1-Et,3-yl))AKAKNLRAQAAANAHLMAQI-NH2
modifications: N-terminus assumed
SMILES: CC[C@H](C)[C@H](NC(=O)[C@H](CCC(N)=O)NC(=O)[C@H](C)NC(=O)[C@H](CCSC)NC(=O)[C@H](CC(C)C)NC(=O)[C@H](Cc1c[nH]cn1)NC(=O)[C@H](C)NC(=O)[C@H](CC(N)=O)NC(=O)[C@H](C)NC(=O)[C@H](C)NC(=O)[C@H](C)NC(=O)[C@H](CCC(N)=O)NC(=O)[C@H](C)NC(=O)[C@H](CCCNC(=N)N)NC(=O)[C@H](CC(C)C)NC(=O)[C@H](CC(N)=O)NC(=O)[C@H](CCCCN)NC(=O)[C@H](C)NC(=O)[C@H](CCCCN)NC(=O)[C@H](C)NC(=O)[C@H](CSC1CC(=O)N(CC)C1=O)NC(=O)[C@H](CC(N)=O)NC(=O)[C@H](Cc1ccccc1)NC(=O)[C@H](CC(C)C)NC(=O)[C@H](CC(C)C)NC(=O)[C@H](CC(N)=O)NC(=O)[C@H](CCSC)NC(=O)[C@@H](NC(=O)[C@H](CC(N)=O)NC(=O)[C@@H](NC(=O)[C@@H]1CCCN1C(=O)[C@@H](NC(=O)[C@H](CC(=O)O)NC(=O)[C@H](CC(C)C)NC(=O)[C@H](CO)NC(=O)[C@H](CC(C)C)NC(=O)[C@@H](NC(=O)[C@H](Cc1ccccc1)NC(=O)[C@H](CCCCN)NC(=O)[C@@H](N)[C@@H](C)O)[C@@H](C)O)C(C)C)[C@@H](C)O)[C@@H](C)CC)C(N)=O
B4: Cys-variant of stresscopin peptide with N-Ethylsuccinimide (NES) reactive group SEQ ID NO: 50 (peptide)
peptide: TKFTLSLDVPTNIMNLLFNIAKAC(Succinimide(1-Et,3-yl))NLRAQAAANAHLMAQI-NH2
modifications: N-terminus assumed
SMILES: CC[C@H](C)[C@H](NC(=O)[C@H](CCC(N)=O)NC(=O)[C@H](C)NC(=O)[C@H](CCSC)NC(=O)[C@H](CC(C)C)NC(=O)[C@H](Cc1c[nH]cn1)NC(=O)[C@H](C)NC(=O)[C@H](CC(N)=O)NC(=O)[C@H](C)NC(=O)[C@H](C)NC(=O)[C@H](C)NC(=O)[C@H](CCC(N)=O)NC(=O)[C@H](C)NC(=O)[C@H](CCCNC(=N)N)NC(=O)[C@H](CC(C)C)NC(=O)[C@H](CC(N)=O)NC(=O)[C@H](CSC1CC(=O)N(CC)C1=O)NC(=O)[C@H](C)NC(=O)[C@H](CCCCN)NC(=O)[C@H](C)NC(=O)[C@@H](NC(=O)[C@H](CC(N)=O)NC(=O)[C@H](Cc1ccccc1)NC(=O)[C@H](CC(C)C)NC(=O)[C@H](CC(C)C)NC(=O)[C@H](CC(N)=O)NC(=O)[C@H](CCSC)NC(=O)[C@@H](NC(=O)[C@H](CC(N)=O)NC(=O)[C@@H](NC(=O)[C@@H]1CCCN1C(=O)[C@@H](NC(=O)[C@H](CC(=O)O)NC(=O)[C@H](CC(C)C)NC(=O)[C@H](CO)NC(=O)[C@H](CC(C)C)NC(=O)[C@@H](NC(=O)[C@H](Cc1ccccc1)NC(=O)[C@H](CCCCN)NC(=O)[C@@H](N)[C@@H](C)O)[C@@H](C)O)C(C)C)[C@@H](C)O)[C@@H](C)CC)[C@@H](C)CC)C(N)=O
B5: Cys-variant of stresscopin peptide with N-Ethylsuccinimide (NES) reactive group SEQ ID NO: 46 (peptide)
peptide: TKFTLSLDVPTNIMNLLFNIAKAKNLRAQAC(Succinimide(1-Et,3-yl))ANAHLMAQI-NH2
modifications: N-terminus assumed
SMILES: CC[C@H](C)[C@H](NC(=O)[C@H](CCC(N)=O)NC(=O)[C@H](C)NC(=O)[C@H](CCSC)NC(=O)[C@H](CC(C)C)NC(=O)[C@H](Cc1c[nH]cn1)NC(=O)[C@H](C)NC(=O)[C@H](CC(N)=O)NC(=O)[C@H](C)NC(=O)[C@H](CSC1CC(=O)N(CC)C1=O)NC(=O)[C@H](C)NC(=O)[C@H](CCC(N)=O)NC(=O)[C@H](C)NC(=O)[C@H](CCCNC(=N)N)NC(=O)[C@H](CC(C)C)NC(=O)[C@H](CC(N)=O)NC(=O)[C@H](CCCCN)NC(=O)[C@H](C)NC(=O)[C@H](CCCCN)NC(=O)[C@H](C)NC(=O)[C@@H](NC(=O)[C@H](CC(N)=O)NC(=O)[C@H](Cc1ccccc1)NC(=O)[C@H](CC(C)C)NC(=O)[C@H](CC(C)C)NC(=O)[C@H](CC(N)=O)NC(=O)[C@H](CCSC)NC(=O)[C@@H](NC(=O)[C@H](CC(N)=O)NC(=O)[C@@H](NC(=O)[C@@H]1CCCN1C(=O)[C@@H](NC(=O)[C@H](CC(=O)O)NC(=O)[C@H](CC(C)C)NC(=O)[C@H](CO)NC(=O)[C@H](CC(C)C)NC(=O)[C@@H](NC(=O)[C@H](Cc1ccccc1)NC(=O)[C@H](CCCCN)NC(=O)[C@@H](N)[C@@H](C)O)[C@@H](C)O)C(C)C)[C@@H](C)O)[C@@H](C)CC)[C@@H](C)CC)C(N)=O
B6: Pegylated Cys-variant stresscopin-like peptide, NES-PEG MW40000, SEQ ID NO: 100 (peptide)
peptide: TKFTLSLDVPTNIMNLLFNIAKAKNLRCQAAANAHLMAQI
modifications: NES-PEG MW40000 on Cys 28; C-terminal amide (-NH2)
B7: Pegylated Cys-variant stresscopin-like peptide, NES-PEG MW80000 & BRANCHED, SEQ ID NO: 101 (peptide)
peptide: TKFTLSLDVPTNIMNLLFNIAKAKNLRCQAAANAHLMAQI
modifications: NES-PEG MW80000 & BRANCHED on Cys 28; C-terminal amide (-NH2)
B8: Cys-variant of stresscopin peptide with N-Ethylsuccinimide (NES) reactive group SEQ ID NO: 48 (peptide)
peptide: TKFTLSLDVPTNIMNLLFNIAKAKNC(Succinimide(1-Et,3-yl))RAQAAANAHLMAQI-NH2
modifications: N-terminus assumed
SMILES: CC[C@H](C)[C@H](NC(=O)[C@H](CCC(N)=O)NC(=O)[C@H](C)NC(=O)[C@H](CCSC)NC(=O)[C@H](CC(C)C)NC(=O)[C@H](Cc1c[nH]cn1)NC(=O)[C@H](C)NC(=O)[C@H](CC(N)=O)NC(=O)[C@H](C)NC(=O)[C@H](C)NC(=O)[C@H](C)NC(=O)[C@H](CCC(N)=O)NC(=O)[C@H](C)NC(=O)[C@H](CCCNC(=N)N)NC(=O)[C@H](CSC1CC(=O)N(CC)C1=O)NC(=O)[C@H](CC(N)=O)NC(=O)[C@H](CCCCN)NC(=O)[C@H](C)NC(=O)[C@H](CCCCN)NC(=O)[C@H](C)NC(=O)[C@@H](NC(=O)[C@H](CC(N)=O)NC(=O)[C@H](Cc1ccccc1)NC(=O)[C@H](CC(C)C)NC(=O)[C@H](CC(C)C)NC(=O)[C@H](CC(N)=O)NC(=O)[C@H](CCSC)NC(=O)[C@@H](NC(=O)[C@H](CC(N)=O)NC(=O)[C@@H](NC(=O)[C@@H]1CCCN1C(=O)[C@@H](NC(=O)[C@H](CC(=O)O)NC(=O)[C@H](CC(C)C)NC(=O)[C@H](CO)NC(=O)[C@H](CC(C)C)NC(=O)[C@@H](NC(=O)[C@H](Cc1ccccc1)NC(=O)[C@H](CCCCN)NC(=O)[C@@H](N)[C@@H](C)O)[C@@H](C)O)C(C)C)[C@@H](C)O)[C@@H](C)CC)[C@@H](C)CC)C(N)=O

For this test, the target named is T1, human corticotrophin releasing hormone …. As to the kind of experiment: cell-based or functional assay.
With B1, the “Log DR” value stood at 0.11 log10 and the pA50 was 9.36 -log10(M).

Take B2: the “Log DR” value is -0.03 log10 and the pA50 was 9.5 -log10(M).

Take B3: the “Log DR” value came to 0.68 log10 and the pA50 was 8.79 -log10(M).

For the molecule B4, the “Log DR” value was -0.01 log10 and the pA50 is 9.48 -log10(M).

B5: the “Log DR” value amounted to 0.04 log10 and the pA50 is 9.43 -log10(M).

For the molecule B6, the “Log DR” value worked out at 1.1 log10 and the pA50 is 8.64 -log10(M).

For the molecule B7, the “Log DR” value was 1.9 log10 and the pA50 is 7.84 -log10(M).

As for B8, the “Log DR” value came to 0.03 log10 and the pA50 is 9.44 -log10(M).
